Experimental data: publication PMC3936760 (Nucleic Acids Research, 2013)

Molecular target: full-length human poly(A)-binding protein (PABP, PABPC1) (human, UniProt P11940 1-636)
Assay: FRET or BRET

Sequence of full-length human poly(A)-binding protein (PABP, PABPC1) (P11940 whole entry): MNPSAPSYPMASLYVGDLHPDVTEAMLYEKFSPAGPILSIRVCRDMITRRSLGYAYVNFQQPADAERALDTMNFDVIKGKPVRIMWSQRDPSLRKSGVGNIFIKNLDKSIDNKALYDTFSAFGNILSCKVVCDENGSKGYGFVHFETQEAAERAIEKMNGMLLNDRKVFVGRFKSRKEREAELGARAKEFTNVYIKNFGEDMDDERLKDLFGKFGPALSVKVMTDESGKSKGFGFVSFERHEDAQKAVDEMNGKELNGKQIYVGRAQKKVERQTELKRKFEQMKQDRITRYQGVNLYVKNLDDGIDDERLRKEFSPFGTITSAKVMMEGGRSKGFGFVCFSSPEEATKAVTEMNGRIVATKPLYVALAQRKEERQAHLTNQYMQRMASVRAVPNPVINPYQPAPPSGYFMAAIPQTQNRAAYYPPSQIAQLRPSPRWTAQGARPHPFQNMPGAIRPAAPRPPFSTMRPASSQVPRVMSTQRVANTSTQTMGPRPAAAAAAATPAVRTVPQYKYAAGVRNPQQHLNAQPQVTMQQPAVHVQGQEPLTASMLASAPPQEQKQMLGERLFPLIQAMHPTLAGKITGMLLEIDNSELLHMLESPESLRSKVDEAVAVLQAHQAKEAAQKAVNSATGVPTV

kon: 153000 M⁻¹ s⁻¹
B1: GST-tagged human PABP-interacting protein 2 (Paip2) (natural protein, UniProt Q9BPZ3 1-127, looked up)
chain: MKDPSRSSTSPSIINEDVIINGHSHEDDNPFAEYMWMENEEEFNRQIEEELWEEEFIERCFQEMLEEEEEHEWFIPARDLPQTMDQIQDQFNDLVISDGSSLEDLVVKSNLNPNAKEFVPGVKYGNI
